B1: TRIM15 (parent)
chain: LLARLRELEQQIWKERDEYITKVS
B2: PRIM1 (parent)
chain: CCSSADICPKCWTLMTMAIRIIDR

Variants of: B1
Experiment: protein stability index of a GFP-peptide fusion (GPS, HEK-293T) (PSI 1-6); higher = more stable
Conditions: c terminus: a fixed tail appended
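Also: lentivirally expressed fusions sorted by FACS into six bins by GFP to DsRed ratio, PSI derived from sequencing read proportions per bin multiplied by bin number.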

Variant	protein stability index
V23R	1.57
V23D	3.9
V23F	1.69
V23W	1.7
V23L	2
V23A	1.5
V23S	2.25
V23Q	1.71
V23T	1.63
V23C	2.1
V23I	1.86
V23H	1.86
V23M	2.03
V23P	1.26
V23N	1.64
V23Y	2.4
S24K	1.44
S24E	1.38
S24N	1.52
S24D	3.02
S24P	1.82
S24V	3
S24A	1.63

Variant	protein stability index
S24M	2.12
S24L	1.95
S24F	1.51
S24C	2.05
S24R	1.93
S24I	2.42
S24H	2.29
S24T	1.31
S24Y	2.94
D17R	2.14
D17T	2.08
D17Q	3.32
D17Y	3.07
Y19E	1.39
Y19Q	2.13
Y19S	1.71
Y19D	2.12
Y19P	1.55
Y19T	1.67
Y19L	1.98
Y19W	2.07
Y19M	2.21
Y19N	1.91

Variant	protein stability index
I20M	1.71
I20E	4.11
I20G	2.17
I20L	1.33
I20N	1.63
I20C	1.08
I20Y	3.1
I20Q	2.09
I20P	1.6
I20K	2.1
I20H	2.12
I20S	2.18
I20F	3.15
I20D	2.11
I20A	1.3
I20R	2.91
E18N	2.08
E18M	2.33
E18Q	1.18
E18G	1.81
T21Y	2.02
T21W	2.63
T21N	1.7

Variant	protein stability index
T21A	2.07
T21Q	2.41
T21P	2.59
T21L	2.39
T21K	1.48
T21H	1.49
T21I	2.45
T21D	1.32
K22F	1.72
K22W	2.06
K22P	1.23
K22I	1.78
K22C	1.94
K22N	1.38
K22V	1.97
K22T	1.43
K22D	1.97
K22G	2.25
K22R	2.46
K22A	2.38
K22Y	1.9

Variants of: B2
Experiment: as above
Conditions: c terminus: a fixed tail appended

Variant	protein stability index
I7R	1.85
I7M	1.52
I7A	1.87
I7D	2.35
I7Y	1.57
I7F	2.63
I7Q	2.05
I7H	1.91
I7K	2.65
I7T	1.77
I7E	2.21
I7W	2.16
I7S	1.72
I7L	2.56
I7N	1.69
I7G	1.98
I7C	1.94
I7V	1.88
I7P	2.07
C1S	1.79
C1W	2.25
C1K	1.61
C1M	2.5
C1I	1.53
C1F	1.5

Variant	protein stability index
C1G	1.88
C1D	2.01
C1R	2.01
C1N	1.49
C1Y	1.37
C1E	1.6
C1Q	1.85
C1P	1.78
C1T	2.12
C1V	2.87
C1H	1.87
C1L	2
P9C	2.43
P9I	1.78
P9G	1.9
P9W	1.35
P9Q	1.67
P9S	1.96
P9T	1.47
P9F	1.59
P9A	1.53
P9L	1.77
P9E	1.33
P9N	1.29
P9K	2.69

Variant	protein stability index
P9V	2.27
P9D	1.64
P9R	1.73
P9H	2.29
P9M	1.86
P9Y	1.55
A5I	1.33
A5G	1.7
A5H	1.71
A5T	2.98
A5C	2.01
A5F	2.5
A5D	1.41
A5L	1.15
A5Y	3.67
A5M	1.79
A5P	1.62
A5N	1.54
A5R	1.67
A5W	2.15
A5S	2.63
A5V	1.64
A5K	1.93
A5Q	1.51
K10L	2.14

Variant	protein stability index
K10Y	1.85
K10H	2
K10D	3.36
K10T	2.71
K10M	1.92
K10R	2.3
K10E	1.56
K10F	1.95
K10Q	1.98
K10N	1.81
K10C	2.62
C8V	2.88
C8R	3.94
C8I	3.3
C8A	3.21
C8K	2.95
C8N	2.83
C8L	3.02
C8Q	1.8
C8S	1.54
L14Q	1.9
L14S	2.39
L14I	1.75
L14D	1.95
L14Y	1.71

Variant	protein stability index
L14M	1.55
L14A	2.21
L14C	1.8
L14V	1.8
L14G	1.27
L14W	2.62
L14F	2.06
L14P	2.27
L14H	1.6
L14N	1.82
L14K	2
L14E	2.06
L14R	2.18
L14T	2.89
D6N	1.86
D6S	1.86
D6R	1.51
D6W	2.91
D6Y	1.58
D6I	1.91
D6V	1.47
D6T	2.29
D6K	2.14
D6M	2.15
D6H	2.49

Variant	protein stability index
D6C	1.62
D6F	2.11
D6A	1.7
D6E	2.22
D6G	1.47
D6Q	2.44
D6P	2.13
M15E	2.01
M15N	2.29
M15I	2.87
M15C	1.77
M15H	2.25
M15A	2.96
M15G	1.69
M15K	2.45
M15Q	1.95
M15D	2.03
M15L	1.59
M15F	1.47
M15P	2.13
M15R	2.35
C2I	1.74
C2F	1.83
C2A	2.49
C2Y	1.96

Variant	protein stability index
C2H	1.69
C2M	2.48
C2V	2.06
C2E	1.83
C2K	1.45
C2D	2.41
C2P	2.21
C2R	1.91
C2Q	1.9
C2G	1.6
C2L	2.55
C2N	2.03
C2S	1.96
C2W	1.78
S3R	1.9
S3L	2.32
S3I	1.87
S3C	1.65
S3A	1.82
S3W	1.42
S3D	1.56
S3Y	2.43
S3E	2.04
S3Q	2.08
S3P	1.28

Variant	protein stability index
S3T	1.53
S3H	2.16
S3F	1.51
S3M	2.7
S3N	1.95
S3K	1.45
T13D	1.61
T13Q	2.18
T13N	1.38
T13S	1.96
T13G	1.91
T13P	1.3
T13A	2.63
T13C	2.04
T13F	1.53
T13M	1.59
T13K	2.46
T13L	1.49
T13Y	2.19
T13W	2.31
T13E	1.88
T13I	2.13
C11W	2.84
C11D	3.13
C11F	2.58

Variant	protein stability index
C11H	2.43
C11E	3.11
C11T	1.76
C11A	4.39
C11K	1.82
C11I	2.4
W12Y	2.48
W12F	1.69
W12V	1.23
W12M	2.02
W12L	1.56
W12A	2.29
W12D	1.71
W12N	1.83
W12P	1.48
W12R	2.56
W12C	1.83
W12E	2.05
W12G	2.2
W12I	1.83
W12T	1.88
W12Q	2.75
W12S	2.23
W12H	2.19
W12K	2.64

Variant	protein stability index
S4V	2.19
S4A	1.87
S4F	2.39
S4W	1.51
S4Q	2.66
S4P	1.67
S4E	2.11
S4I	1.79
S4R	2.42
S4D	1.48
S4C	2.72
S4T	1.63
S4Y	1.91
S4H	1.72
S4M	2.97
S4G	1.85
S4L	2.24
S4K	2.2
S4N	1.72
